In article PMC2138045:
Where “and” joins values, the source holds several entries; their conditions need not be identical. Equal entries are not always repeated.

Key:
[1] = biological target: His-tagged kelch BTB domain (his:BTB) (Drosophila); test: dynamic light scattering
[2] = biological target: His-tagged kelch BTB domain (his:BTB) (Drosophila); test: SEC
[3] = biological target: His-tagged kelch BTBIVR (his:BTBIVR) (Drosophila); test: SEC

Substance | stoichiometry N [1] | stoichiometry N [2] | stoichiometry N [3]
His-tagged kelch BTB domain (his:BTB) (domain or fragment) | 2 | 2 and 4 | –
His-tagged kelch BTBIVR (his:BTBIVR) (domain or fragment) | – | – | 2
